B1: STRL33 193-210 (peptide)
peptide: ATQMTLGFFLPLLTMIVC
modifications: not checked
B2: STRL33 201-218 (peptide)
peptide: FLPLLTMIVCYSVIIKTL
modifications: not checked
B3: STRL33 253-270 (peptide)
peptide: IRSTHWEYYAMTSFHYTI
modifications: not checked
B4: CCR5 85-102 (peptide)
peptide: FWAHYAAAQWDFGNTMCQ
modifications: not checked
B5: STRL33 165-182 (peptide)
peptide: PQIIYGNVFNLDKLICGY
modifications: not checked
B6: CCR5 93-110 (peptide)
peptide: QWDFGNTMCQLLTGLYFI
modifications: not checked
B7: STRL33 209-226 (peptide)
peptide: VCYSVIIKTLLHAGGFQK
modifications: not checked
B8: STRL33 241-258 (peptide)
peptide: LLTQMPFNLMKFIRSTHW
modifications: not checked
B9: CCR5 117-134 (peptide)
peptide: FFIILLTIDRYLAVVHAV
modifications: not checked
B10: STRL33 257-274 (peptide)
peptide: HWEYYAMTSFHYTIMVTE
modifications: not checked
B11: STRL33 205-222 (peptide)
peptide: LTMIVCYSVIIKTLLHAG
modifications: not checked
B12: STRL33 177-194 (peptide)
peptide: KLICGYHDEAISTVVLAT
modifications: not checked
B13: STRL33 97-114 (peptide)
peptide: FGQVMCKSLLGIYTINFY
modifications: not checked
B14: STRL33 157-174 (peptide)
peptide: VISLLVSLPQIIYGNVFN
modifications: not checked
B15: STRL33 101-118 (peptide)
peptide: MCKSLLGIYTINFYTSML
modifications: not checked
B16: STRL33 125-142 (peptide)
peptide: VDRFIVVVKATKAYNQQA
modifications: not checked
B17: STRL33 225-242 (peptide)
peptide: QKHRSLKIIFLVMAVFLL
modifications: not checked
B18: STRL33 217-234 (peptide)
peptide: TLLHAGGFQKHRSLKIIF
modifications: not checked
B19: STRL33 233-250 (peptide)
peptide: IFLVMAVFLLTQMPFNLM
modifications: not checked
B20: STRL33 173-190 (peptide)
peptide: FNLDKLICGYHDEAISTV
modifications: not checked
B21: CCR5 113-130 (peptide)
peptide: FSGIFFIILLTIDRYLAV
modifications: not checked
B22: STRL33 261-278 (peptide)
peptide: YAMTSFHYTIMVTEAIAY
modifications: not checked
B23: STRL33 229-246 (peptide)
peptide: SLKIIFLVMAVFLLTQMP
modifications: not checked
B24: CCR5 9-26 (peptide)
peptide: IYDINYYTSEPCQKINVK
modifications: not checked
B25: STRL33 249-266 (peptide)
peptide: LMKFIRSTHWEYYAMTSF
modifications: not checked
B26: STRL33 189-206 (peptide)
peptide: TVVLATQMTLGFFLPLLT
modifications: not checked
B27: STRL33 169-186 (peptide)
peptide: YGNVFNLDKLICGYHDEA
modifications: not checked
B28: CCR5 89-106 (peptide)
peptide: YAAAQWDFGNTMCQLLTG
modifications: not checked
B29: STRL33 89-106 (peptide)
peptide: YAGIHEWVFGQVMCKSLL
modifications: not checked
B30: CCR5 101-118 (peptide)
peptide: CQLLTGLYFIGFFSGIFF
modifications: not checked
B31: CCR5 109-126 (peptide)
peptide: FIGFFSGIFFIILLTIDR
modifications: not checked
B32: STRL33 141-158 (peptide)
peptide: QAKRMTWGKVTSLLIWVI
modifications: not checked
B33: STRL33 245-262 (peptide)
peptide: MPFNLMKFIRSTHWEYYA
modifications: not checked
B34: STRL33 237-254 (peptide)
peptide: MAVFLLTQMPFNLMKFIR
modifications: not checked
B35: STRL33 149-166 (peptide)
peptide: KVTSLLIWVISLLVSLPQ
modifications: not checked
B36: STRL33 181-198 (peptide)
peptide: GYHDEAISTVVLATQMTL
modifications: not checked
B37: STRL33 153-170 (peptide)
peptide: LLIWVISLLVSLPQIIYG
modifications: not checked
B38: STRL33 185-202 (peptide)
peptide: EAISTVVLATQMTLGFFL
modifications: not checked
B39: STRL33 213-230 (peptide)
peptide: VIIKTLLHAGGFQKHRSL
modifications: not checked
B40: STRL33 221-238 (peptide)
peptide: AGGFQKHRSLKIIFLVMA
modifications: not checked
B41: STRL33 93-110 (peptide)
peptide: HEWVFGQVMCKSLLGIYT
modifications: not checked
B42: CCR5 97-114 (peptide)
peptide: GNTMCQLLTGLYFIGFFS
modifications: not checked
B43: STRL33 117-134 (peptide)
peptide: MLILTCITVDRFIVVVKA
modifications: not checked

Several values for one entry are separate records, joined by “and”; a condition that tells them apart may be missing. Equal values may be shown once.

In the test the target is HIV-1LAI envelope gp120 labeled with radioactive iodine (HIV-1 LAI), P03377. In words: 125I-gp120, peptide array.
In the case of B1, the counts minus background (counts per 20 min) was 2370 and 2440.

In the case of B2, the counts minus background (counts per 20 min) was 1270 and 1200.

Regarding B3, the counts minus background (counts per 20 min) is 1570 and 1810.

In the case of B4, the counts minus background (counts per 20 min) stood at 212.

On to B5, for which the counts minus background (counts per 20 min) is -18.5 and -37.5.

In the case of B6, the counts minus background (counts per 20 min) is 1020.

As to B7, the counts minus background (counts per 20 min) is 1330 and 1140.

Take B8: the counts minus background (counts per 20 min) was 2510 and 3150.

As to B9, the counts minus background (counts per 20 min) is 77.

In the case of B10, the counts minus background (counts per 20 min) is 2040 and 3070.

As to B11, the counts minus background (counts per 20 min) was 2790 and 2650.

With B12, the counts minus background (counts per 20 min) was 1360 and 1600.

Take B13: the counts minus background (counts per 20 min) was 1260 and 1350.

B14: the counts minus background (counts per 20 min) is -60.5 and -128.

On to B15, for which the counts minus background (counts per 20 min) is 1510 and 1280.

Regarding B16, the counts minus background (counts per 20 min) is 104 and 53.5.

B17: the counts minus background (counts per 20 min) is 810 and 814.

For the molecule B18, the counts minus background (counts per 20 min) is 1040 and 1000.

In the case of B19, the counts minus background (counts per 20 min) was 386 and 772.

In the case of B20, the counts minus background (counts per 20 min) is 1070 and 1080.

B21: the counts minus background (counts per 20 min) was determined as 83.

For the molecule B22, the counts minus background (counts per 20 min) was 2690 and 2360.

As for B23, the counts minus background (counts per 20 min) is 612 and 854.

As for B24, the counts minus background (counts per 20 min) was 228.

In the case of B25, the counts minus background (counts per 20 min) is 934 and 950.

For B26, the counts minus background (counts per 20 min) is 2330 and 2390.

Regarding B27, the counts minus background (counts per 20 min) was -41.5 and -20.5.

B28: the counts minus background (counts per 20 min) turned out to be 494.

Regarding B29, the counts minus background (counts per 20 min) is 5910 and 6250.

For the molecule B30, the counts minus background (counts per 20 min) is 489.

For the molecule B31, the counts minus background (counts per 20 min) amounted to 76.

As to B32, the counts minus background (counts per 20 min) is -71.5 and -31.5.

Regarding B33, the counts minus background (counts per 20 min) was 2170 and 2180.

For the molecule B34, the counts minus background (counts per 20 min) was 2260 and 2840.

As for B35, the counts minus background (counts per 20 min) was -39.5 and -118.

For B36, the counts minus background (counts per 20 min) is 754 and 1180.

For B37, the counts minus background (counts per 20 min) is 42.5 and 75.5.

Take B38: the counts minus background (counts per 20 min) was 3970 and 3750.

On to B39, for which the counts minus background (counts per 20 min) is 962 and 682.

Take B40: the counts minus background (counts per 20 min) is 340 and 260.

B41: the counts minus background (counts per 20 min) is 3390 and 3470.

Turning to B42, the counts minus background (counts per 20 min) worked out at 941.

For B43, the counts minus background (counts per 20 min) was 298 and 228.

(Values after patent publication US7304127.)
